Data taken from EP3628678A1 (Ecole Polytechnique Federale De Lausanne (EPFL) EPFL-TTO, dated 2020).

Biological target: RSVF on RSV A2 strain carrying a luciferase gene (RSV-Luc) (RSV A2 strain, UniProt P03420 26-574)
Experiment: cell-based or functional assay

Chain of RSVF on RSV A2 strain carrying a luciferase gene (RSV-Luc) (P03420 26-574): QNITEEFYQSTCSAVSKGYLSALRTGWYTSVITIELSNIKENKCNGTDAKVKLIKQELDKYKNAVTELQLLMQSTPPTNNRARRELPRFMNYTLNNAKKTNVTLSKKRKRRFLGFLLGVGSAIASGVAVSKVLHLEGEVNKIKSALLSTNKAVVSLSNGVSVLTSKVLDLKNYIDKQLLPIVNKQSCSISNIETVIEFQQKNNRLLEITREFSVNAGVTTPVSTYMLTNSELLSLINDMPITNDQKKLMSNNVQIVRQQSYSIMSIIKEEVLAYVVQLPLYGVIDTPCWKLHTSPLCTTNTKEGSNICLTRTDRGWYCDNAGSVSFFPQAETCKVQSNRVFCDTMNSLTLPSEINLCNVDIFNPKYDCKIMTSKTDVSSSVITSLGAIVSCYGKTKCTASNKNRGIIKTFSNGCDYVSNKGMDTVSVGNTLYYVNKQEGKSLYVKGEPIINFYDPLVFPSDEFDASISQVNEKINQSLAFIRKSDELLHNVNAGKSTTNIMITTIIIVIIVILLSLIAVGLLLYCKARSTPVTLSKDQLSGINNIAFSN

B1: Palivizumab (antibody, V domains shown)
VH: QVTLRESGPALVKPTQTLTLTCTFSGFSLSTSGMSVGWIRQPPGKALEWLADIWWDDKKDYNPSLKSRLTISKDTSKNQVVLKVTNMDPADTATYYCARSMITNWYFDVWGAGTTVTVSS
VL: DIQMTQSPSTLSASVGDRVTITCKCQLSVGYMHWYQQKPGKAPKLLIYDTSKLASGVPSRFSGSGSGTEFTLTISSLQPDDFATYYCFQGSGYPFTFGGGTKLEIK
  RSV neutralization IC50 (luciferase signal of RSV-Luc on HepG2 cells): 0.32 µg/mL
